Source: patent publication US20100291682, “SYSTEM FOR TRANSPOSING HYPERACTIVE RECOMBINANT DERIVATIVES OF MOS-1 TRANSPOSON” (published 2010)

T1: MBP-Mos-1 transposase (MBP-Tnp) (Drosophila mauritiana, UniProt Q7JQ07 SEQ:1-345)
T1 sequence: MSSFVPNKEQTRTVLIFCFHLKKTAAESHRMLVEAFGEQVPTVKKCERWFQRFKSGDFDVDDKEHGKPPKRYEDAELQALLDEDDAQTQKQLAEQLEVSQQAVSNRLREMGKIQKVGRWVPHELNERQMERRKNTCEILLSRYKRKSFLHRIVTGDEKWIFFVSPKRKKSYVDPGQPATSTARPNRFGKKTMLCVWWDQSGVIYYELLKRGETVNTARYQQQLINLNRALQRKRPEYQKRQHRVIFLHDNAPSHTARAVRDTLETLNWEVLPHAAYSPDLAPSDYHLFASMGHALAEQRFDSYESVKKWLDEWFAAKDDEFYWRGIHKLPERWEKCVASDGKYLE

B1: ITRSelex SEQ 40 (dsDNA)
DNA 1: GCGGGTGTGAAAATATGAAATATTCACT
DNA 2: AGTGAATATTTCATATTTTCACACCCGC
B2: ITRSelex SEQ 41 (dsDNA)
DNA 1: GAAGAGTTATAACTCAAGAAAACTGAAT
DNA 2: ATTCAGTTTTCTTGAGTTATAACTCTTC
B3: ITRSelex SEQ 42 (dsDNA)
DNA 1: CGATTACAATTATGAAAACTTTCCT
DNA 2: AGGAAAGTTTTCATAATTGTAATCG
B4: ITRSelex SEQ 43 (dsDNA)
DNA 1: GGAGAAATGGTAGAATAGTTTA
DNA 2: TAAACTATTCTACCATTTCTCC
B5: ITRSelex SEQ 44 (dsDNA)
DNA 1: ATAGTGTTTAAAGCTTACT
DNA 2: AGTAAGCTTTAAACACTAT
B6: ITRSelex SEQ 45 (dsDNA)
DNA 1: GTCAGTGATGTCACCAACGTATGGAATATCGTAT
DNA 2: ATACGATATTCCATACGTTGGTGACATCACTGAC

target: T1, MBP-Mos-1 transposase (MBP-Tnp); assay: EMSA; conditions: complex stability versus ITR alone; MBP tag assumed

Row | Molecule | binding signal [fold]
1 | ITR3'/UTR5' | 4
2 | ITR3'/UTR3' | 4

target: T1, MBP-Mos-1 transposase (MBP-Tnp); assay: not given; conditions: active protein (Bmax) versus ITR3'; same Kd as ITR3'; inventors' prior research

Row | Molecule | binding signal [fold]
3 | Mos-1 ITR5' | 0.1

target: T1, MBP-Mos-1 transposase (MBP-Tnp); assay: EMSA; clone number to SEQ mapping not given; conditions: tags: N-terminal MBP (pMalC2x); chain copies: 2

Row | Molecule | binding result
4 | B1 | binds
5 | B2 | binds
6 | B3 | binds
7 | B4 | binds
8 | B5 | binds
9 | B6 | binds
